Measurements taken from the supplement of paper PMC9112550, “Optimization of the antimicrobial peptide Bac7 by deep mutational scanning” (BMC Biology, 2022).

What follows are sequences tested on Escherichia coli TOP10 (assay: shrunken log2 fold change of peptide-encoding DNA abundance (4.5 h post-induction vs induction); higher = less antimicrobial activity (less host growth inhibition)). Details: time post-induction: 4.5 h; library: site-saturation at positions 5, 18, 19, 20.
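Further: peptides expressed intracellularly from a pBAD plasmid library in pooled LB shake-flask culture, induced with 0.3% L-arabinose, DNA abundance read by NGS, three biological replicates, DESeq2 with apeglm shrinkage.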

Row | Sequence | shrunken log2 fold change
1 | RRIRCRPPRLPRPRPRPPICPRP | -0.248
2 | RRIRCRPPRLPRPRPRPPKLPRP | 0.0685
3 | RRIRCRPPRLPRPRPRPPKWPRP | 0.447
4 | RRIRCRPPRLPRPRPRPPLAPRP | 0.79
5 | RRIRCRPPRLPRPRPRPPLPPRP | 0.539
6 | RRIRCRPPRLPRPRPRPPPMPRP | 1.08
7 | RRIRCRPPRLPRPRPRPPPPPRP | 1.55
8 | RRIRCRPPRLPRPRPRPPSHPRP | -0.0142
9 | RRIRCRPPRLPRPRPRPPSWPRP | 0.194
10 | RRIRCRPPRLPRPRPRPPTKPRP | 0.108
11 | RRIRCRPPRLPRPRPRPPTQPRP | 0.515
12 | RRIRCRPPRLPRPRPRPPVSPRP | 0.134
13 | RRIRCRPPRLPRPRPRPPWLPRP | 0.241
14 | RRIRCRPPRLPRPRPRPQAHPRP | -0.132
15 | RRIRCRPPRLPRPRPRPQAMPRP | 0.189
16 | RRIRCRPPRLPRPRPRPQCMPRP | -0.833
17 | RRIRCRPPRLPRPRPRPQDNPRP | -0.285
18 | RRIRCRPPRLPRPRPRPQEEPRP | -0.0124
19 | RRIRCRPPRLPRPRPRPQHDPRP | -0.219
20 | RRIRCRPPRLPRPRPRPQKAPRP | 0.265
21 | RRIRCRPPRLPRPRPRPQLHPRP | -0.213
22 | RRIRCRPPRLPRPRPRPQMKPRP | -0.514
23 | RRIRCRPPRLPRPRPRPQNWPRP | -0.0693
24 | RRIRCRPPRLPRPRPRPQPDPRP | 0.102
25 | RRIRCRPPRLPRPRPRPQPQPRP | 0.526

Row | Sequence | shrunken log2 fold change
26 | RRIRCRPPRLPRPRPRPQQDPRP | -0.046
27 | RRIRCRPPRLPRPRPRPQSFPRP | -0.253
28 | RRIRCRPPRLPRPRPRPQVSPRP | -0.0343
29 | RRIRCRPPRLPRPRPRPQWRPRP | 0.274
30 | RRIRCRPPRLPRPRPRPQWTPRP | -0.205
31 | RRIRCRPPRLPRPRPRPQYCPRP | -0.135
32 | RRIRCRPPRLPRPRPRPQYEPRP | -0.119
33 | RRIRCRPPRLPRPRPRPRANPRP | 0.255
34 | RRIRCRPPRLPRPRPRPRAWPRP | 0.24
35 | RRIRCRPPRLPRPRPRPRCIPRP | -0.29
36 | RRIRCRPPRLPRPRPRPRCSPRP | -0.0164
37 | RRIRCRPPRLPRPRPRPRDGPRP | 1
38 | RRIRCRPPRLPRPRPRPRFEPRP | 0.115
39 | RRIRCRPPRLPRPRPRPRGTPRP | 0.0528
40 | RRIRCRPPRLPRPRPRPRHVPRP | -0.0723
41 | RRIRCRPPRLPRPRPRPRIYPRP | -0.0107
42 | RRIRCRPPRLPRPRPRPRKQPRP | 0.284
43 | RRIRCRPPRLPRPRPRPRLDPRP | 0.154
44 | RRIRCRPPRLPRPRPRPRMDPRP | -0.0539
45 | RRIRCRPPRLPRPRPRPRMGPRP | 0.0392
46 | RRIRCRPPRLPRPRPRPRMNPRP | -0.096
47 | RRIRCRPPRLPRPRPRPRREPRP | 0.746
48 | RRIRCRPPRLPRPRPRPRRMPRP | 0.00514
49 | RRIRCRPPRLPRPRPRPRRQPRP | 0.403
50 | RRIRCRPPRLPRPRPRPRRYPRP | -0.0183

Row | Sequence | shrunken log2 fold change
51 | RRIRCRPPRLPRPRPRPRTGPRP | 0.148
52 | RRIRCRPPRLPRPRPRPRTWPRP | 0.326
53 | RRIRCRPPRLPRPRPRPRVFPRP | 0.0449
54 | RRIRCRPPRLPRPRPRPRVWPRP | 0.747
55 | RRIRCRPPRLPRPRPRPRWAPRP | 0.453
56 | RRIRCRPPRLPRPRPRPRYWPRP | -0.0818
57 | RRIRCRPPRLPRPRPRPSCEPRP | -0.493
58 | RRIRCRPPRLPRPRPRPSFFPRP | -0.552
59 | RRIRCRPPRLPRPRPRPSHHPRP | -0.603
60 | RRIRCRPPRLPRPRPRPSKYPRP | -0.635
61 | RRIRCRPPRLPRPRPRPSLQPRP | -0.455
62 | RRIRCRPPRLPRPRPRPSPCPRP | -0.0417
63 | RRIRCRPPRLPRPRPRPSQCPRP | -0.548
64 | RRIRCRPPRLPRPRPRPSQHPRP | -0.114
65 | RRIRCRPPRLPRPRPRPSQPPRP | 0.075
66 | RRIRCRPPRLPRPRPRPSSLPRP | -0.555
67 | RRIRCRPPRLPRPRPRPSSQPRP | -0.377
68 | RRIRCRPPRLPRPRPRPSTAPRP | 0.0354
69 | RRIRCRPPRLPRPRPRPSTCPRP | -0.355
70 | RRIRCRPPRLPRPRPRPSTFPRP | -0.714
71 | RRIRCRPPRLPRPRPRPSTNPRP | -0.911
72 | RRIRCRPPRLPRPRPRPSWGPRP | 0.258
73 | RRIRCRPPRLPRPRPRPSYQPRP | -0.923
74 | RRIRCRPPRLPRPRPRPSYRPRP | -0.242
75 | RRIRCRPPRLPRPRPRPTAEPRP | 0.363

Row | Sequence | shrunken log2 fold change
76 | RRIRCRPPRLPRPRPRPTASPRP | 0.266
77 | RRIRCRPPRLPRPRPRPTDQPRP | 0.38
78 | RRIRCRPPRLPRPRPRPTDVPRP | -0.461
79 | RRIRCRPPRLPRPRPRPTEHPRP | 0.00581
80 | RRIRCRPPRLPRPRPRPTFSPRP | -0.187
81 | RRIRCRPPRLPRPRPRPTFWPRP | 0.174
82 | RRIRCRPPRLPRPRPRPTGAPRP | 0.419
83 | RRIRCRPPRLPRPRPRPTHRPRP | 0.426
84 | RRIRCRPPRLPRPRPRPTIKPRP | -0.364
85 | RRIRCRPPRLPRPRPRPTKAPRP | 0.209
86 | RRIRCRPPRLPRPRPRPTKLPRP | -0.132
87 | RRIRCRPPRLPRPRPRPTKPPRP | 0.531
88 | RRIRCRPPRLPRPRPRPTKRPRP | 0.0767
89 | RRIRCRPPRLPRPRPRPTKYPRP | -0.192
90 | RRIRCRPPRLPRPRPRPTMLPRP | -0.096
91 | RRIRCRPPRLPRPRPRPTPPPRP | 0.807
92 | RRIRCRPPRLPRPRPRPTPSPRP | 0.736
93 | RRIRCRPPRLPRPRPRPTQHPRP | 0.349
94 | RRIRCRPPRLPRPRPRPTQPPRP | 0.222
95 | RRIRCRPPRLPRPRPRPTSVPRP | 0.0631
96 | RRIRCRPPRLPRPRPRPTTIPRP | -0.492
97 | RRIRCRPPRLPRPRPRPTVWPRP | 0.553
98 | RRIRCRPPRLPRPRPRPTWGPRP | 0.301
99 | RRIRCRPPRLPRPRPRPVANPRP | 0.0866
100 | RRIRCRPPRLPRPRPRPVDKPRP | -0.184

Row | Sequence | shrunken log2 fold change
101 | RRIRCRPPRLPRPRPRPVDLPRP | -0.348
102 | RRIRCRPPRLPRPRPRPVDNPRP | -0.00721
103 | RRIRCRPPRLPRPRPRPVDTPRP | -0.0338
104 | RRIRCRPPRLPRPRPRPVEDPRP | -0.0221
105 | RRIRCRPPRLPRPRPRPVETPRP | 0.0672
106 | RRIRCRPPRLPRPRPRPVFYPRP | -0.379
107 | RRIRCRPPRLPRPRPRPVGNPRP | -0.0972
108 | RRIRCRPPRLPRPRPRPVGQPRP | 0.0533
109 | RRIRCRPPRLPRPRPRPVGTPRP | -0.149
110 | RRIRCRPPRLPRPRPRPVLGPRP | 0.0642
111 | RRIRCRPPRLPRPRPRPVLKPRP | 0.181
112 | RRIRCRPPRLPRPRPRPVLVPRP | -0.0168
113 | RRIRCRPPRLPRPRPRPVMWPRP | 0.131
114 | RRIRCRPPRLPRPRPRPVNPPRP | -0.176
115 | RRIRCRPPRLPRPRPRPVQHPRP | -0.0893
116 | RRIRCRPPRLPRPRPRPVQVPRP | -0.164
117 | RRIRCRPPRLPRPRPRPVQYPRP | -0.203
118 | RRIRCRPPRLPRPRPRPVSGPRP | 0.357
119 | RRIRCRPPRLPRPRPRPVSNPRP | 0.0201
120 | RRIRCRPPRLPRPRPRPVTGPRP | -0.0982
121 | RRIRCRPPRLPRPRPRPVTLPRP | -0.34
122 | RRIRCRPPRLPRPRPRPVVRPRP | -0.356
123 | RRIRCRPPRLPRPRPRPVWGPRP | -0.0554
124 | RRIRCRPPRLPRPRPRPVWMPRP | -0.179
125 | RRIRCRPPRLPRPRPRPVWQPRP | -0.063

Row | Sequence | shrunken log2 fold change
126 | RRIRCRPPRLPRPRPRPVYHPRP | -0.53
127 | RRIRCRPPRLPRPRPRPVYKPRP | -0.595
128 | RRIRCRPPRLPRPRPRPVYWPRP | 0.134
129 | RRIRCRPPRLPRPRPRPVYYPRP | -0.363
130 | RRIRCRPPRLPRPRPRPWCAPRP | -0.0685
131 | RRIRCRPPRLPRPRPRPWFCPRP | -0.177
132 | RRIRCRPPRLPRPRPRPWGPPRP | -0.299
133 | RRIRCRPPRLPRPRPRPWHTPRP | -0.261
134 | RRIRCRPPRLPRPRPRPWIDPRP | -0.00146
135 | RRIRCRPPRLPRPRPRPWISPRP | -0.085
136 | RRIRCRPPRLPRPRPRPWKDPRP | 0.00196
137 | RRIRCRPPRLPRPRPRPWLTPRP | -0.117
138 | RRIRCRPPRLPRPRPRPWNNPRP | -0.107
139 | RRIRCRPPRLPRPRPRPWPAPRP | 0.375
140 | RRIRCRPPRLPRPRPRPWPEPRP | -0.15
141 | RRIRCRPPRLPRPRPRPWPPPRP | 1.08
142 | RRIRCRPPRLPRPRPRPWPTPRP | 0.0985
143 | RRIRCRPPRLPRPRPRPWQEPRP | -0.153
144 | RRIRCRPPRLPRPRPRPWQFPRP | -0.0402
145 | RRIRCRPPRLPRPRPRPWQKPRP | -0.0588
146 | RRIRCRPPRLPRPRPRPWRIPRP | -0.321
147 | RRIRCRPPRLPRPRPRPWRMPRP | -0.116
148 | RRIRCRPPRLPRPRPRPWRTPRP | -0.166
149 | RRIRCRPPRLPRPRPRPWSWPRP | 0.0159
150 | RRIRCRPPRLPRPRPRPWTGPRP | -0.422
